Experiments:
Mushroom tyrosinase [1] = biological target: T1, Mushroom tyrosinase (mushroom, UniProt C7FF04 1-392); assay: cell-based or functional assay
Mushroom tyrosinase [2] = biological target: T1, Mushroom tyrosinase; assay: enzyme kinetics on mushroom tyrosinase, Lineweaver-Burk / nonlinear regression, differs from Table 4
Description: Tyrosinase inhibitory activity was determined in vitro using L-tyrosine or L-dopa as the substrate following a modified method from Piao, L. Z., Park, H. R., Park, Y. K., Lee, S. K., Park, J. H., and Park, M. K. (2002) Chem Pharm Bull (Tokyo) 50, 309-311. The concentration of enzyme, substrate and inhibitor was denoted as [E], [S] and [I], respectively. The experiment was conducted in a 96-well flat-bottomed plate. Each well contained 80 μl of 0.067 M potassium phosphate buffer (pH 6.8), 40 μl of 5 mg/ml L-tyrosine dissolved in 0.067 M potassium phosphate buffer (pH 6.8), 40 μl of the different concentrations of inhibitors dissolved in the same buffer, and 40 μl of 480 units/ml mushroom tyrosinase solution. The final volume of each well was 200 μl, containing 1 mg/ml [S], 96 units/ml [E] and varying concentrations of [I] ranging from 1 μM to 10 mM. For the negative control wells, the inhibitors were substituted with buffer solution and adjusted to the total volume of 200 μl. HQ served as a positive control to calibrate the assay as a wide range of IC₅₀ values has been previously reported (Neeley, E., Fritch, G., Fuller, A., Wolfe, J., Wright, J., and Flurkey, W. (2009) Int J Mol Sci 10, 3811-3823). The assay mixture was incubated at 37° C. The optical density of the reaction mixtures, which correlates with the amount of dopachrome produced, was measured at 475 nm using a Varioskan microplate reader (Thermo Electron Corporation, San Jose, Calif.) at different time periods. For assessment of the 2nd step of melanin synthesis, we used L-dopa as the substrate and freshly extracted human tyrosinase as previously described (Abu Ubeid, A., Zhao, L., Wang, Y., and Hantash, B. M. (2009) J Invest Dermatol 129, 2242-2249).
The kinetics and mode of inhibition for P16-18 (SEQ ID NO: 1, 2 and 3 respectively) and HQ was determined using a standard assay (Pomerantz, S. H. (1966) J Biol Chem 241, 161-168). As illustrated by Lineweaver-Burk plots shown in FIG. 3, the Vₘₐₓ was independent of […] for HQ and all 3 octapeptides, whereas the Kₘ was altered.

T1 sequence (C7FF04 1-392): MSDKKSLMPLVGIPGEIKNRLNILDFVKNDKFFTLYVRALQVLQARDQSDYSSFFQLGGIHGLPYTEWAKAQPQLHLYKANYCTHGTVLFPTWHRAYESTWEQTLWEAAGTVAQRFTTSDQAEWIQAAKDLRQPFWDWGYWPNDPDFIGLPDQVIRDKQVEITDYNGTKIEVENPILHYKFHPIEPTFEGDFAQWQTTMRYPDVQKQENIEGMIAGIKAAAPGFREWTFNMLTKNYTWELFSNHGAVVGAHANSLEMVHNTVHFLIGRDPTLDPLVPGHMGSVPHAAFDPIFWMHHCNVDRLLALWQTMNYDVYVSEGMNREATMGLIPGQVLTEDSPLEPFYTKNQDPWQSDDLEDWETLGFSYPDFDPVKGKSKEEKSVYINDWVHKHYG

Binder	IC50 [µM], mushroom tyrosinase inhibition (dopachrome OD 475 nm, L-tyrosine substrate) (Mushroom tyrosinase [1])	Ki (Mushroom tyrosinase [2])
RRRYWYYR (Synthetic octapeptide) [P17 peptide]	398 µM	190 µM
RRYWYWRR (Synthetic octapeptide) [P18 peptide]	282 µM	179 µM
RRFVLL [P14 peptide]	1770 µM	–
RRWWRRYY (Synthetic octapeptide) [P16 peptide]	238 µM	167 µM
RRVAL [P13 peptide]	2200 µM	–

Reference: patent publication US20150118286A1 (ELIXIR INSTITUTE OF REGENERATIVE MEDICINE, published 2015)
